Test results reported in article PMC3923783, “Competitive and Cooperative Interactions Mediate RNA Transfer from Herpesvirus Saimiri ORF57 to the Mammalian Export Adaptor ALYREF” (PLoS Pathogens, 2014).

B1: ALYREF fragment aa1–155 (ALYREF^1–155) (domain or fragment)
chain: not shown
notes: source: E. coli BL21-RP, purified (gel filtration), as described previously [30]
B2: ORF57^8–120 (domain or fragment)
chain: GISSDDDFDSSDSSSDEEESDTSPQIMKSDVTMASPPSTPEPSPDVSASTSNLKRERQRSPITWEHQSPLSRVYRSPSPMRFGKRPRISSNSTSRSCKTSWADRVREAAAQRR
notes: Herpesvirus saimiri (HVS) ORF57 protein, residues 8-120; Construct of the NMR and fluorescence experiments; It may be the same construct as the hexa-histidine ORF57^8–120; also called ORF57 aa8–120; ORF57(aa8–120); source: E. coli BL21-RP, purified (gel filtration), as described previously [30]

Columns and labels:
ORF57^8–120 = molecular target: B2; assay: other fluorescence titration; 14merS RNA titrated into 10 µM 1:1 ALYREF^1–155 - ORF57^8–120 mixture in buffer F; three-equation equilibrium model (DynaFit); the constant of ALYREF for the ORF57-RNA complex inferred from the thermodynamic cycle; apparent; settings: both partners purified
[1] = molecular target: B1; assay: other fluorescence titration; blue shift of tryptophan emission (barycentric mean) with rising concentrations of equimolar ALYREF^1–155 and ORF57^8–120; buffer F (20 mM phosphate pH 6.2, 50 mM NaCl, 50 mM L-Arg+L-Glu, 5 mM EDTA, 1 mM TCEP); apparent Kd, quadratic equation or DynaFit; settings: both partners purified

Binder	KD of ALYREF for the ORF57-RNA (14merS) complex, inferred from the thermodynamic cycle (ORF57^8–120)	Kd [1]
B1	0.52 µM	–
B2	–	2.56 ± 0.2 µM
